Results from patent publication US20240075137A1 (COMPUGEN, published 2024).

Tests used:
mPVRL2 HIS = target: T1, mPVRL2 HIS (mouse, UniProt P32507 32-351, limits assumed); assay: ELISA: soluble PVRL2 HIS titrated on plates coated with mDNAM1-mFc
T1 construct: also called mPVRL2 protein; Soluble PVRL2 HIS protein
T1 sequence (looked up): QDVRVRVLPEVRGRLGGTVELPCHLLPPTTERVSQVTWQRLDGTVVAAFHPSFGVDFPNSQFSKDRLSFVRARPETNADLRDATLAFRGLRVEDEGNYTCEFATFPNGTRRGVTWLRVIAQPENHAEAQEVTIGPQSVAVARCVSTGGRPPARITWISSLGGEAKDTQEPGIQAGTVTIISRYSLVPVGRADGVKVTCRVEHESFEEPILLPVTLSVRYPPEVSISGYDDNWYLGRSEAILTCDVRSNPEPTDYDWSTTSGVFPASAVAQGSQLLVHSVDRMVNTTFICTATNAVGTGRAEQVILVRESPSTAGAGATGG

human TIGIT on cells [1] = target: T2, human TIGIT on cells (human, UniProt Q495A1 22-141); assay: FACS blocking of human PVR-m2aFc binding to human TIGIT OE Expi293 cells; binding site concentration; n=1
T2 construct: also called Expi293 human TIGIT over-expressing cells
T2 sequence: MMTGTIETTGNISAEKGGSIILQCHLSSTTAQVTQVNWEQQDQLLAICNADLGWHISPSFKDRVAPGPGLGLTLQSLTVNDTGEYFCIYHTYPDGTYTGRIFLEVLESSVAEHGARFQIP

cyno TIGIT on cells [2] = target: T3, cyno TIGIT on cells (cynomolgus macaque); assay: FACS titration of AF647-labelled mAb on cyno effector memory CD8+ T cells, Cyno Donor 1; isotype gMFI subtracted
T3 construct: whole, on cells; also called Expi293 cyno TIGIT over-expressing cells

[3] = target: T4, human TIGIT ECD with C-terminal polyhistidine tag (human, UniProt Q495A1 22-141); assay: SPR (ProteOn), Human TIGIT-His
T4 construct: in-house or Sino Biological; also called hTIGIT-HIS; human TIGIT-HIS
T4 sequence: T2 sequence

human TIGIT on cells [4] = target: T2, human TIGIT on cells; assay: FACS blocking of human PVR-m2aFc binding to human TIGIT OE Expi293 cells; binding site concentration; n=2
human TIGIT on cells [5] = target: T2, human TIGIT on cells; assay: FACS titration of AF647-labelled mAb on human effector memory CD8+ T cells, Donor 334
Cyno TIGIT-His [6] = target: T5, Cyno TIGIT-His; assay: SPR (ProteOn), Cyno TIGIT-His
T5 construct: also called cyno TIGIT monomer (prepared in-house); C-terminal HIS-tagged cyno TIGIT ECD recombinant protein
T5 sequence (ECD with C-terminal His tag, as listed by the source): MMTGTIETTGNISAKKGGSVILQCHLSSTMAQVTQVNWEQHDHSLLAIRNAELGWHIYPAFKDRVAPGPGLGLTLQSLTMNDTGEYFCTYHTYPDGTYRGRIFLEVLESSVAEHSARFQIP

cyno TIGIT on cells [7] = target: T3, cyno TIGIT on cells; assay: FACS titration on cyno TIGIT OE Expi293 cells, binding site concentration; ± 95% CI; 'Fit: Excellent'; panel of the upper row
Procedure: (§1) AF647-labeled goat anti-human F(ab′) (Jackson Immunoresearch) was added to the cells to detect binding of anti-TIGIT antibodies. The gMFI of the anti-TIGIT antibodies bound to the cyno TIGIT over-expressing Expi293 cells (black line), and the parental Expi293 cells (grey line) are shown.

cyno TIGIT on cells [8] = target: T3, cyno TIGIT on cells; assay: FACS titration of AF647-labelled mAb on cyno effector memory CD8+ T cells, Cyno Donor 3; isotype gMFI subtracted
Cyno TIGIT-His [9] = target: T5, Cyno TIGIT-His; assay: SPR (ProteOn), mAb captured, cyno TIGIT monomer injected; kd of this row held constant; BM26 as hIgG4
human TIGIT on cells [10] = target: T2, human TIGIT on cells; assay: FACS titration on human TIGIT OE Expi293 cells, binding site concentration; ± 95% CI; 'Fit: Good/Excellent'; panel of the lower row
Procedure: (§2) AF647-labeled goat anti-human F(ab′) (Jackson Immunoresearch) was added to the cells to detect binding of anti-TIGIT antibodies.

[11] = target: T4, human TIGIT ECD with C-terminal …; assay: SPR (ProteOn), mAb captured, human TIGIT injected; BM26 as hIgG4
[12] = target: T4, human TIGIT ECD with C-terminal …; assay: KinExA equilibrium, His-tagged human TIGIT, n = 2
Procedure: (§3) KinExA equilibrium experiments were performed using a KinExA 3200 instrument (Sapidyne Instruments, Boise, ID, USA) at 22° C. Recombinant His-tagged human TIGIT was obtained from Sino Biologicals (Beijing, China) and reconstituted into 1×PBS. All antigen and antibody samples for KinExA analyses were prepared in degassed PBST buffer (PBS with 0.05% tween 20) with 100 ug/mL filtered BSA and 0.02% sodium azide. […] For each KinExA experiment, ˜20 lag of human TIGIT was diluted into 1 mL of 50 mM sodium carbonate, pH 9.2 which was added directly to 50 mg of azlactone beads (Ultralink Support, Thermo Scientific, Rockford, IL, USA) and rocked overnight at 4° C. After rocking, the beads were rinsed once with 1 M Tris buffer, pH 8.5, containing 10 mg/mL BSA and rocked for one hour at room temperature in the same buffer. Coupled beads were added to the bead reservoir in the KinExA instrument and diluted to ˜30 mL with 1×HBS-N (0.01 M Hepes, 0.15M NaCl, GE Healthcare) containing 0.02% sodium azide which was also the running buffer for the KinExA instrument. All antigen-coupled beads were used immediately after preparation.
(§4) The volume flowed through the bead pack for each equilibrated sample for all experiments ranged from 4 mL to 11 mL at a flow rate of 0.25 mL/min.

Mouse TIGIT-His = target: T6, Mouse TIGIT-His (mouse, UniProt P86176); assay: SPR (ProteOn), mAb captured, mouse TIGIT monomer injected; BM26 as hIgG4
T6 construct: also called mouse TIGIT monomer (prepared in-house)
T6 sequence (soluble monomer with His tag, looked up): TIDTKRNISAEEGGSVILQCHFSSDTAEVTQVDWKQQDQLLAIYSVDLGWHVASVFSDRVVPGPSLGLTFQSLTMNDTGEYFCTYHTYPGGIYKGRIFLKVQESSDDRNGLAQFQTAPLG

human TIGIT on cells [13] = target: T2, human TIGIT on cells; assay: FACS titration of AF647-labelled mAb on human effector memory CD8+ T cells, Donor 321
human TIGIT on cells [14] = target: T2, human TIGIT on cells; assay: FACS blocking: Expi293 human TIGIT cells pre-incubated with mAb, then human PVR-m2aFc; lower gMFI = more blocking
cyno TIGIT on cells [15] = target: T3, cyno TIGIT on cells; assay: FACS titration on cyno TIGIT OE Expi293 cells, binding site concentration; ± 95% CI; 'Fit: Good'; panel of the lower row
Procedure: as §1

human TIGIT on cells [16] = target: T2, human TIGIT on cells; assay: FACS titration of AF647-labelled mAb on human effector memory CD8+ T cells, Donor 322
[17] = target: T4, human TIGIT ECD with C-terminal …; assay: KinExA equilibrium, His-tagged human TIGIT, n = 1
Procedure: as §3, §4

human TIGIT on cells [18] = target: T2, human TIGIT on cells; assay: FACS titration on human TIGIT OE Expi293 cells, binding site concentration; ± 95% CI; 'Fit: Good/Excellent'; panel of the upper row
Procedure: as §2

human PVRIG on cells [19] = target: T7, human PVRIG on cells (human, UniProt Q6DKI7 1-326); assay: FACS on Jurkat cells pre-incubated with CHA.7.538.1.2 (unconjugated)
T7 construct: whole, on cells; over-expressed on HEK cells or endogenous on Jurkat and CD8 T cells; also called hPVRIG; HEK hPVRIG cells
T7 sequence (looked up): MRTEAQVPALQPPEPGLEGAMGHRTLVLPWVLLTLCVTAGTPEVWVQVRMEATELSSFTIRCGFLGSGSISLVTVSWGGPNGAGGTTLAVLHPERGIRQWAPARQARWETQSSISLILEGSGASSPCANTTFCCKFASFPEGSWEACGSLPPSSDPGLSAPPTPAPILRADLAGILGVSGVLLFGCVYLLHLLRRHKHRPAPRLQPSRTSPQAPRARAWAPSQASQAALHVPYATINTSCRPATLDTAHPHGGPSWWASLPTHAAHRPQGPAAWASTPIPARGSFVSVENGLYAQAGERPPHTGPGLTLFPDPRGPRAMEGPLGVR
Source text: (§5) Data was acquired using a FACS Canto II and analysed using FlowJo, Excel, and Prism.

human PVRIG on cells [20] = target: T7, human PVRIG on cells; assay: FACS on Jurkat cells pre-incubated with CHA.7.518.1 (unconjugated)
Source text: as §5

[21] = target: T8, cynomolgus PVRIG on cells (cynomolgus, UniProt A0A2K5WVV8 41-322); assay: flow cytometry titration, expi cPVRIG cells
T8 construct: whole, on cells; also called cPVRIG; expi cPVRIG cells
T8 sequence: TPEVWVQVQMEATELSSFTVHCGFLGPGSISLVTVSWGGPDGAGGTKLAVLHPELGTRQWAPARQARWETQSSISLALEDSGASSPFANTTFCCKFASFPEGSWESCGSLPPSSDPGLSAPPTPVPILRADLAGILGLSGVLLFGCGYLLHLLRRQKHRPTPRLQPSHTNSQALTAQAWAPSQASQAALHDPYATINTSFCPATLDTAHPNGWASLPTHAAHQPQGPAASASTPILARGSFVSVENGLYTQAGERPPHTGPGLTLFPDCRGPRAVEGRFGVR
Procedure: These cells were cultured in DMEM+10% fetal calf serum+glutamax. expi cPVRIG transient over-expressing cells were generated by electroporating cPVRIG DNA into parental expi cells using the Neon transfection system. For FACS analysis, expi cPVRIG cells were used between 1-3 days-post transfection. Parental expi cells were harvested from log growth phase. 50,000-100,000 cells of per well of each type were seeded in 96 well plates. […] The titration series were conducted as a 3-fold dilution series. […] Data was acquired using a FACS Canto II or IntelliCyte and analyzed using FlowJo and Prism software.

human PVRIG on cells [22] = target: T7, human PVRIG on cells; assay: FACS on Jurkat cells pre-incubated with Isotype (unconjugated)
Source text: as §5

human PVRIG on cells [23] = target: T7, human PVRIG on cells; assay: FACS competition: PVRL2 mFc binding to HEK hPVRIG cells
Procedure: Cells were washed twice in PBS for acquisition using a FACS Canto II. Data was analyzed using FlowJo, Excel and Prism.

human PVRIG on cells [24] = target: T7, human PVRIG on cells; assay: FACS KD, cell type 'Jurkat' (table beside the curve, column 'FACS KD (nM)')
human PVRIG on cells [25] = target: T7, human PVRIG on cells; assay: FACS KD, cell type 'HEK293 hPVRIG' (table beside the curve, column 'FACS KD (nM)')
PVRIG Fc [26] = target: T9, PVRIG Fc (UniProt Q6DKI7 41-171, limits assumed, biotinylated (Example 5)); assay: FACS blocking assay: binding of PVRIG Fc to HEK cells that endogenously express PVRL2, with the antibody titrated
T9 construct: also called biotinylated PVRIG Fc protein; PVRIG-Fc-fusion protein
T9 sequence (looked up): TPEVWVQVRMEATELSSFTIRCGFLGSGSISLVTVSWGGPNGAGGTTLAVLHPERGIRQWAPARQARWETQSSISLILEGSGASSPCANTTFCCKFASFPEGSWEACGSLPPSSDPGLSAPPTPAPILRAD
Procedure: (§6) Cells were washed twice in PBS for acquisition using a FACS Canto II. Data was analyzed using FlowJo, Excel (Microsoft), and Prism.

human PVRIG on cells [27] = target: T7, human PVRIG on cells; assay: flow cytometry titration, HEK hPVRIG cells
Procedure: These cells were cultured in DMEM (Gibco)+10% fetal calf serum (Gibco)+glutamax (Gibco). For the HEK hPVRIG over-expressing cells, 0.5 ug/ml puromycin (Gibco) was also added to the media for positive selection. For FACS analysis, all cell lines were harvested in log phase growth and 50,000-100,000 cells per well were seeded in 96 well plates. […] The titration series was conducted as 3 fold serial dilutions. […] Data was acquired using a FACS Canto II (BD Biosciences), FACS LSR Fortessa X-20 (BD Biosciences), or IntelliCyt (IntelliCyt Corporation) and analyzed using FlowJo (Treestar) and Prism (Graphpad) software.

[28] = target: T8, cynomolgus PVRIG on cells; assay: FACS KD, cell type 'HEK293 cPVRIG' (table beside the curve, column 'FACS KD (nM)')
PVRIG Fc [29] = target: T9, PVRIG Fc; assay: FACS competition: biotinylated PVRIG Fc (33 nM) binding to HEK cells with endogenous PVRL2
Procedure: as §6

B1: DNAM1 Fc (Fc fusion, mouse (prefix m in FIG. 95D), UniProt Q8K4F0 19-254, looked up)
fusion chain: EETLWDTTVRLSETMTLECVYPLTHNLTQVEWTKNTGTKTVSIAVYNPNHNMHIESNYLHRVHFLNSTVGFRNMSLSFYNASEADIGIYSCLFHAFPNGPWEKKIKVVWSDSFEIAAPSDSYLSAEPGQDVTLTCQLPRTWPVQQVIWEKVQPHQVDILASCNLSQETRYTSKYLRQTRSNCSQGSMKSILIIPNAMAADSGLYRCRSEAITGKNKSFVIRLIITDGGTNKHFILP
notes: receptor part of an Fc fusion; also called mDNAM1-mFc
mPVRL2 HIS
  binding result: binds

B2: BM26 hIgG4 (antibody, V domains shown)
VH: EVQLQQSGPELVKPGSSVKMSCKASGYTFSSYVMHWVKQKPGQGLEWIGYIDPYNDGAKYNEKFKGKATLTSDKSSSTAYMELSSLTSEDSAVYYCARGGPYGWYFDVWGAGTTVTVSS
VL: DIQMTQSPASLSASVGETVTITCRASEHIYSYLSWYQQKQGKSPQLLVYNAKTLAEGVPSRFSGSGSGTQFSLKINSLQPEDFGTYYCQHHFGSPLTFGAGTTLELKR
notes: benchmark anti-human TIGIT antibody, human IgG4 with S241P; also called BM26-H4; WO2016/028656A1 Clone 3106 as hIgG4
Human TIGIT on cells [1]
  IC50: 0.45 nM
Cyno TIGIT on cells [2]
  Kd: 4.6 nM
[3]
  Kd: 0.004 nM
Human TIGIT on cells [4]
  IC50: 0.26 nM
Human TIGIT on cells [5]
  Kd: 0.81 nM
Cyno TIGIT-His [6]
  Kd: 0.0035 nM
Cyno TIGIT on cells [7]
  Kd: 0.69 nM
Cyno TIGIT on cells [8]
  Kd: 7.5 nM
Cyno TIGIT-His [9]
  Kd: 0.00125 nM
Human TIGIT on cells [10]
  Kd: 0.74 nM
[11]
  Kd: 0.0241 nM
[12]
  Kd: 0.0112 nM
Mouse TIGIT-His
  binding result: no binding (tested: 92.9 nM mouse TIGIT)
Human TIGIT on cells [13]
  Kd: 0.93 nM
Human TIGIT on cells [14]
  gMFI of bound PVR-m2aFc at 266 pM mAb: 719
  gMFI of bound PVR-m2aFc at 1.3 nM mAb: 401
  gMFI of bound PVR-m2aFc at 6.7 nM mAb: 234
Cyno TIGIT on cells [15]
  Kd: 1.12 nM
Human TIGIT on cells [16]
  Kd: 1.4 nM
[17]
  Kd: 0.0082 nM
Human TIGIT on cells [18]
  Kd: 0.44 nM

B3: CHA.7.518.1.H4(S241P) (antibody, human IgG4 S228P, kappa, V domains shown)
VH: QVQLVQSGAEVKKPGASVKVSCKASGYTFTDYNINWVRQAPGQGLEWMGYIYPYIGGSGYAQKFQGRVTMTRDTSTSTVYMELSSLRSEDTAVYYCAREDKTARNAMDYWGQGTLVTVSS
VL: DIQMTQSPSSLSASVGDRVTITCRVSENIYSNLAWYQQKPGKAPKLLIYEATNLAEGVPSRFSGSGSGTDFTLTISSLQPEDFATYYCQHFWGTPYTFGQGTKLEIKR
notes: humanized, human IgG4 with S241P; also called anti-PVRIG
Human PVRIG on cells [19]
  % binding relative to maximum signal: 7%
Human PVRIG on cells [20]
  % binding relative to maximum signal: 14%
[21]
  Kd: 0.24 nM
Human PVRIG on cells [22]
  % binding relative to maximum signal: 100%
Human PVRIG on cells [23]
  IC50: 1.8 nM
Human PVRIG on cells [24]
  Kd: 0.15 nM
Human PVRIG on cells [25]
  Kd: 0.298 nM
PVRIG Fc [26]
  IC50 (read off the curve): ~6 nM
Human PVRIG on cells [27]
  Kd: 0.29 nM
[28]
  Kd: 0.248 nM
PVRIG Fc [29]
  IC50: 15 nM
